From publication PMC8163762, “Impact of DNA methylation on 3D genome structure”

Biological target: T1, Ume6p (Saccharomyces cerevisiae, UniProt P39001 1-836)
T1 sequence: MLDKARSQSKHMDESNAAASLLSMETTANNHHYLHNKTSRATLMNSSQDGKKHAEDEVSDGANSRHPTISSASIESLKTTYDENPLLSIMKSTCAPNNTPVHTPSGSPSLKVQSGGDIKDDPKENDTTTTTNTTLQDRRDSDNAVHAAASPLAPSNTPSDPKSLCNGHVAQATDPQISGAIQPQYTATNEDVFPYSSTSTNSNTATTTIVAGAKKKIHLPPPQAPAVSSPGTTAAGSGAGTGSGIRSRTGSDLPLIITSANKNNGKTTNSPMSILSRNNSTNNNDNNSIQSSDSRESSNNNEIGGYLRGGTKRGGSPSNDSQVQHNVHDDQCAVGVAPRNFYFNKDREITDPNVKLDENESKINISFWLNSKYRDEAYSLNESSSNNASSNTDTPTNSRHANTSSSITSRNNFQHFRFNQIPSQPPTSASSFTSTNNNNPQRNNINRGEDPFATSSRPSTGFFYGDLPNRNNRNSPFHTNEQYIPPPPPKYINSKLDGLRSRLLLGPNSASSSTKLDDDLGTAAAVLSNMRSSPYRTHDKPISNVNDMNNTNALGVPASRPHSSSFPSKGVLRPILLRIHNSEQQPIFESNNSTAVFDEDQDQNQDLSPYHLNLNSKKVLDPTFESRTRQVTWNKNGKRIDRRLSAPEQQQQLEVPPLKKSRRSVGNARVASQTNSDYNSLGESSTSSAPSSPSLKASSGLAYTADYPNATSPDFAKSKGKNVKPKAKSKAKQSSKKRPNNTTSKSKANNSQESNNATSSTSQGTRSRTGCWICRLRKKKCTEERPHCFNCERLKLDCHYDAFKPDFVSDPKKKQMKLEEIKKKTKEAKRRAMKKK
Experiment: EMSA; EMSA buffer and temperature not given in material; protein dialyzed in 10 mM sodium phosphate pH 7.4, 50 mM NaCl, 10 uM ZnCl2
Settings: protein: recombinant; tags: N-terminal 6xHis (pET14b); label: Cy5 on forward oligo

B1: SPO13 URS1 probe, unmethylated (Spo13-Cy5-F/Spo13-R) (dsDNA)
DNA 1: TTAATTAGGAGTATATTGAGAAATAGCCGCCGACAAAAAGGAAGTCTCATAAAAGT
DNA 2: ACTTTTATGAGACTTCCTTTTTGTCGGCGGCTATTTCTCAATATACTCCTAATTAA
B1: binds.
